In the DeepSol protein solubility set:

test: soluble on expression in E. coli; label from the status in PepcDB or PDB records

Soluble on expression in E. coli, soluble:
MSLTEPEDPSRERLKHHFAQRVIHQARQILEIWQRLQRSEWSTTDMSELCEANLRLLRFAERFEQPEHTQLARSISQSLEAVDANRGRLSSNLITDLNRLMQRLSRTGLRHGDQLEQTFLPPLRKPIYVMLQDHDRAERLAKQLEFFGLSAQSLDSIPAFRSSMVERLPAAIVIDVDFCGAGMGLTLAAEAQVGLEQKLPLLFFSLHETDTPTRLAAVRAGGQEFLTGTLEASSLLEKIEVLTCVAQYEPYKVLIIDDSRAQALHTERLLNSAGIVTRTLIEPIQAMAELADFQPDLIILDMYMPACTGTELAKVIRHNDRYVSVPIIYLSAEDDLDKQLDAMSEGGDDFLTKPIKPRHLITTVRNRAARARNLKARMVRDSLTGLYNHTHILQLLEDCSFRARREGKPLSFAMLDIDHFKRVNDSHGHPMGDRVIKSLALFLKQRLRKTDFIGRYGGEEFAIVMPDTDQDAACKVLDEIRQRFAEIHYPAQPQDLWCTFSAGVVEMQEDSDSLIMASQADEALYRAKHGGRNRVQAARSSQSAIFSSESTDSVITLEGHHHHHH
MSLDIMITHKKIYSSLLNTKSRLNFKDTVQSGQSFRWNLNETLKSYYSSVIYNSIIFICEINSEMIEVLCTDQELSGKPINEFLKHLFSLDFQEETVFSSRFQQEFPEVWNLVQSYRSVRVMRQDPFEIMVTFMCAQGIGMHLIRRQVSMIAERYGQKIMLELPEGNLTFHSFPPPQALASADPNELAVCTNNNRIRAANIIAMARSFESGKLALACVDSGKCDLETLRETLCVHSGIGLKIADCIALFGLGRFDAFPIDTHVKQYLWEWFGIEEARHSLTEKNYRILQEKARAILGAEYAGYAGHILFHCWRKEVKKMKAEGHHHHHH
MGKEALLNLYRIEYRPKDTTFTVFKPTHEIQKEKLNKVRWRVFLQTGLPTFRREDEFWCAGKVEKDTLYLTLSNGEIVELKRVGEEEFRGFQNERECQELFRDFLTKTKVKDKFISDFYKKFRDKITVQGKNRKIALIPEVNEKVLKSEEGYFLLHLDLKFRIQPFETLQTLLERNDFNPKRIRVKPIGIDFVGRVQDVFKAKEKGEEFFRLCMERSTHKSSKKAWEELLKNRELREKAFLVVLEKGYTYPATILKPVLTYENLEDEERNEVADIVRMEPGKRLNLIRYILRRYVKALRDYGWYISPEEERAKGKLNFKDTVLDAKGKNTKVITNLRKFLELCRPFVKKDVLSVEIISVSVYKKLEWRKEEFLKELINFLKNKGIKLKIKGKSLILAQTREEAKEKLIPVINKIKDVDLVIVFLEEYPKVDPYKSFLLYDFVKRELLKKMIPSQVILNRTLKNENLKFVLLNVAEQVLAKTGNIPYKLKEIEGKVDAFVGIDISRITRDGKTVNAVAFTKIFNSKGELVRYYLTSYPAFGEKLTEKAIGDVFSLLEKLGFKKGSKIVVHRDGRLYRDEVAAFKKYGELYGYSLELLEIIKRNNPRFFSNEKFIKGYFYKLSEDSVILATYNQVYEGTHQPIKVRKVYGELPVEVLCSQILSLTLMNYSSFQPIKLPATVHYSDKITKLMLRGIEPIKKEGDIMYWL
MVRKGCNSLVRAEKILTHIAWVGMASYMELLNKFQYPKSSLLNLLNVMVDCGFLIKNKNGYYSLGIKNYELGCQALHRQNIFEVTKRPMQELSLKSGLVCHLGAMESISAIYLDKIESPDSVPTSKSWIGKKLELHITALGKALLAWKTREELDYFLEALTLTPHTRNTFTDKKLFLEELQKTRLRGWAIDNEESTYGAVCLSMPVFNMYNRVNYAISLSGDPVVYSGNKIDSYLELLRKCAEQISYGLGYRNENEHLRKGN

Soluble on expression in E. coli, not soluble:
MSLEHFDDKSQLKRNGFYFSYNVDKENIEHWISAILFQVLKDKEDIVILSLGVDTLVGDSLGPLVGSILKRNGIPNVYGTLDRTVNASNIIKILDEIHERFKNPYILVVDAAVTAENNINDIVLRNGGFTPGFGVYRQLPTVGDFSLVGVVNKEDEREHNLIELLKKCRFDEVLKLARIISKILVLTFARMNKGDKEGHHHHHH
MGSDKIHHHHHHMSNCFNPANILLPKDGIDMEKWSVIACDQYTSQADYWKTVEEFVGDAPSTLNVVFPEIYLGNKKNDKNCACENGSCADDHTTMYASMSDSERIACINSTMEKYLSDGIIQQVVTDGYVLVERTTESGVRLGIVGLVDLDDYDFDPKNPTLIRATEGTVISRIPPRVKIREHAAIELPHVMLLVDDPVDKADDASDEGKLTDIYNIGNIEHGIIEYVYSLKDSFRKLYDTDLMQGGGHIRGYAIEGEAAKQVTAAFAKKQEQSGGFLFAVGDGNHSLATAKTCWENIRKSQKFTDEQLKTHPARYALVEICNLHSKALEFKPIHRLLTKVNVEDMLAFFNEQLKEQGLECAEGNEIIFEYVESSDSIDENASGYEARVCTYAINIINRGDRLPVEILQGILDKYIKSHEDTEIDYIHGDDALHRLVKETNGCGIFLQSIDKSTLFPAINAGGVLPRKTFSIGEANEKRYYMECHNIQVK
MTQLKTQYPSLIIDASFITLAANATVKPQDKTYNTVNLLNRFFLIWLDVASRGLSHHHVLSHPFKDWMTNMLDFPYHHEFIEFLGRWTHILIALPKRHHGQVDTAIPRYLLVTIREKTGIVKLTTVQNTAFTTQSNQLKKQYGQFLLTESNNCCACPGCDRPLILTSGNLAAENYEVSAIEKDKDAEALNLIALCPDGFLTYQADRRKKIVTTLKNVKKILVSAHNSQQAISDMKLDSGIVSVLTSLNKLKCDEYNISYDSKQLTDKISPENNRTLYQLVKNQVIDNYLTIQKIIVNLDKQGKIDYEKIQYQTRSMYKKLKAAKHNNLAIFNTISEKLHLATLQDIYFCQMIVSYFIQKCEVLE
MAHHHHHHMALTTDYSKLGELIHQSPESPSLYNQAKYHTQKQNDSFYEIKRFMCLGSTIPDDAQYSVDLLIDRGDKKCRDVLAESFRVEGYKYATTNNDDNVRFAKLFFDHYANMFYCMHLHGDDRKCNSLFRHFYEAVGKQTR
MTFFFDDRDQAVPYTATADDVAPTGQQIWQELQSGKWGEIAPFTVTPEMLEAAREARRQEIEAWRTEQEAKPFTFEWNGRIWNAGPDSLGRLSPVVMLAKSVTAQTHMAWSDADNQQVKLSMPELEELAESQKTALLTEAESVIRQPGRAVRLNRETDESGEARGRASVFPESVRSVVYAM
MQKYTIVDLNEKAEAELAAIAGELGIANAGSMPKQELIYKILDEQAISVAGVRKEKQKTTEDRHTERRKPGRPRKNAEEEAPESEDVAAAPAEPNDEEAQAKRKRGRPRKAAEEIAEETREDVQQLVALAAAEETNATEKESAGRKPAAKTSTASPAKAPAKALPRPAETTPRVAPSPPPTTPVSEPAKDDAKPETPAPPPAIESITTTPAAGAVDEGGARRLVFRHKNSSSVLDQVLPYSSPQPPQRPKPAGAPVGSSPIRQRQAAGVPTPRREPQQPLYNFDGILECM
SSWAIHYIGKSVEQLTGYSKMDFITRKLTWSDLICPEDIPALNKVVQKATKNRTPYQVEYRIKKADGSTVFIQEQAHPVNDDKGNLAYVDGVFLDV
MTKRNTPQRRHNILALLNEQGEVSVDDLARRFETSEVTIRKDLAALETNGLLLRRYGGAIPLPHELISESSQPVSRYKKAIARAAVSRIREHARIIVDSGSTTAALIPELGQQPGLVVMTNSLHVARALTDLEHEPVLLMTGGTWDPHSESFQGQVAEQVLRSYDFDQLFIGADGIDLIRGTTTFNELLGLSRVMAEVAREVVVMVEADKVGRKIPNLELPWSSIHTLITDDRLPVEARDQIQARGINLICAAVSLEHHHHHH
MGSDKIHHHHHHMDIRVLRYFVVIAQEQNISRAATLLNVSQPALSRQIADLEDELGTKLFTRAHRHIQLTQEGHYLLERALQIIGLVDKTTYNLQKQDVVSGTLDIGAGESVGIMPVMEAAQQIMRQYPDVRVNLRSADAEPILADLDAGILEFGIIMGNRPLNNYNTLVLPAKNHWCAIMRADEPLAQQKEIRPIDLVGRPLITSRQAYKHGLFQKWSNTLYDQLNFVGTFNLAFNGSLLVKTGAAIALLYDQLVDVSPTSGLVARPLNPDMSEANTLIWSKNRNLPNLNRLFLDTLQKNLAQQGGSDA
MSITEDIDDLKTAIENNEPIRKGIEETMHRASQIRIKQRYNCAEQEVTQMRAPFLGFSVFVRFQSRARAHTIKIINEDEVEQMLASSPVPYS
